T1: human ALK2-R202I on cells (human, UniProt Q04771 21-509)
T1 sequence: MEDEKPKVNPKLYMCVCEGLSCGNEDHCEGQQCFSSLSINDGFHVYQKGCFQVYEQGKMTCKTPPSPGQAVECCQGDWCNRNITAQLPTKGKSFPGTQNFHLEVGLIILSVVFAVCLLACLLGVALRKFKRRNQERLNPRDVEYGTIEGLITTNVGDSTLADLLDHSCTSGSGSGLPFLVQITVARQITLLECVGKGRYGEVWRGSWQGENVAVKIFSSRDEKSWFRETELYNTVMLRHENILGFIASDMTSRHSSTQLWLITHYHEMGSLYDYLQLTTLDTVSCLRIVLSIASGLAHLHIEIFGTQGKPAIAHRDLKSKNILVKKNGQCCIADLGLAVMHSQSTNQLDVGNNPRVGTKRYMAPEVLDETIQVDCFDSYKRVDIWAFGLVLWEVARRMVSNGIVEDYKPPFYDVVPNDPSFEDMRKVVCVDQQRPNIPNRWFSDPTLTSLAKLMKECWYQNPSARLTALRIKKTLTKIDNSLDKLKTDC

T2: human ALK2-G328E on cells (human, UniProt Q04771 21-509)
T2 sequence: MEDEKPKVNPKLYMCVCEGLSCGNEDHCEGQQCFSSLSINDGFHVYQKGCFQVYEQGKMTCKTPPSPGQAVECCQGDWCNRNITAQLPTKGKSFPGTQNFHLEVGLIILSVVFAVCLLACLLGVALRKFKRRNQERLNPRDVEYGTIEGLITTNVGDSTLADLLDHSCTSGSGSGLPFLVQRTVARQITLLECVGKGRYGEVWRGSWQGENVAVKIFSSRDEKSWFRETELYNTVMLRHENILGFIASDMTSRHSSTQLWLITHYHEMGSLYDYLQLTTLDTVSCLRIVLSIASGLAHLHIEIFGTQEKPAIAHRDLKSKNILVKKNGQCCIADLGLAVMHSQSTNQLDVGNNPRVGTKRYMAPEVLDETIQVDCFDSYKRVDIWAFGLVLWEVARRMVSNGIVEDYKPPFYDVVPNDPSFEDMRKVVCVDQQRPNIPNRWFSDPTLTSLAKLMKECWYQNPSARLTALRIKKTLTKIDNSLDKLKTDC

T3: human ALK2(WT)-EGFP on cells (human, UniProt Q04771 21-509)
T3 construct: also called hALK2(WT)-EGFP; human ALK2-EGFP; not shown: EGFP fused to ALK2
T3 sequence: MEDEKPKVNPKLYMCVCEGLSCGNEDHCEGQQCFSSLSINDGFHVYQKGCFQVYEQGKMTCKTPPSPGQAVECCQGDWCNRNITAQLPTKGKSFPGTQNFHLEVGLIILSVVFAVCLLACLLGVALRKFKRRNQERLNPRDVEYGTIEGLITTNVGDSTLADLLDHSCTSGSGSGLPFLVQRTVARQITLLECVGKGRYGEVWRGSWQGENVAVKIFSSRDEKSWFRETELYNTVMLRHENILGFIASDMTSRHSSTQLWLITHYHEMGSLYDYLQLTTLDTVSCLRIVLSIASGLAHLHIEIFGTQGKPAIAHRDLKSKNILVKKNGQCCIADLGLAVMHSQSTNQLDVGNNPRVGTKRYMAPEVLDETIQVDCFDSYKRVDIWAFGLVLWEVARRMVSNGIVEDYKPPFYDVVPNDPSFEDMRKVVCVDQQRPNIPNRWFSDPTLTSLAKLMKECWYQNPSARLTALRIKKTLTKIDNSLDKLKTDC


What was measured:
[1] = target: T1, human ALK2-R202I on cells; assay: immunofluorescence (legend of FIG. 4)
Protocol: (§1) Mouse C2C12 cells were seeded into a 96-well plate (Greiner Bio-One) at 0.5×10³ cells/well, and cultured in 15% FBS-containing DMEM medium overnight under the conditions of 5% CO₂ at 37° C. On the following day, the C2C12 cells were transfected with each of a wild-type human ALK2 cDNA integrated into pcDEF3; pcDEF3/human ALK2-L196P, pcDEF3/human ALK2-P197_F198delinsL, pcDEF3/human ALK2-R202I, pcDEF3/human ALK2-R206H, pcDEF3/human ALK2-Q207E, pcDEF3/human ALK2-R258S, pcDEF3/human ALK2-G325A, pcDEF3/human ALK2-G328E, pcDEF3/human ALK2-G328R, pcDEF3/human ALK2-G328W, pcDEF3/human ALK2-G356D, and pcDEF3/human ALK2-R375P, which are variants identified in FOP; and pcDEF3 as a control, using Lipofectamine 2000 (Invitrogen), and further cultured overnight.
(§2) The C2C12 cells were fixed with 10% neutral formalin (Nacalai Tesque, Japan) for 20 minutes at room temperature, and then blocked with 10% goat normal serum for 30 minutes. After the blocking agent was removed, purified IgG diluted to 10 μg/mL with the blocking agent was added, and the cells were left for 1 hour at room temperature. After the cells were washed with PBS three times, Goat Alexa 594-conjugated anti-rat IgG (Invitrogen) diluted to 1:1000 with the blocking agent was added, and the cells were left for 1 hour at room temperature. After the cells were washed with PBS three times, the cells were fixed with 10% neutral formalin for 15 minutes at room temperature, and nuclear-stained with DAPI (LifeTechnologies). Fluorescent signals were analyzed with a fluorescence microscope BZ-9000 (Keyence).

[2] = target: T2, human ALK2-G328E on cells; assay: immunofluorescence (legend of FIG. 4)
Protocol: as §1, §2

[3] = target: T3, human ALK2(WT)-EGFP on cells; assay: flow cytometry on transfected HEK293A cells, Alexa 647 anti-rat IgG (APC-A) against EGFP (FITC-A)
Protocol: HEK293A cells were seeded into a 100-mm dish at 3×10⁴ cells/cm², and cultured overnight in 15% FBS-containing DMEM medium under the conditions of 5% CO₂ at 37° C. On the following day, the HEK293A cells were transfected with each of pcDEF3/mouse ALK2(WT)-EGFP, pcDEF3/human ALK2(WT)-EGFP, pcDEF3/human ALK2 (R206H)-EGFP, and pcDEF3, using Lipofectamine 2000 (Invitrogen), and further cultured overnight. On the following day, 100 μL each of the cell suspensions adjusted to 1×10⁶ cells/mL was dispensed into a 1.5-mL microfuge and centrifuged at 500 g for 5 minutes, and then the supernatant was removed. To the cells, 100 μL of purified IgG diluted to 1 μg/mL was added, and the cells were left for 30 minutes at 4° C. After the cells were washed with PBS three times, 100 μL of Alexa flour 647 Goat anti-Rat IgG (H+L) (Life Technologies) diluted to 1:200 was added, and the cells were further left for 30 minutes at 4° C. After the cells were washed with PBS three times, fluorescence was detected by a flow cytometer (FACS Aria II: BD Biosciences). The data was analyzed using BD Diva Software (BD Biosciences), and the intensity of EGFP expressed by the cells and the fluorescence intensity of stained Alexa flour 647 were plotted.

Row | Binder | binding result [1] | binding result [2] | binding result [3]
1 | rat anti-ALK2 monoclonal antibody A2-11E (antibody, V domains shown, Rat monoclonal IgG from a hybridoma; also called 11E2) VH: EVQLVETGGGLVQPGRSLKLSCVASGFTFSNYYMYWIRQAPGKGLEWISSINTDGGSTYYPDSVKGRFAISRDNAENTVYLQMNSLRSEDTATYYCAKSTPNIPLAYWGQGTLVTVSS VL: DIQMTQSPSLLSASVGDRVTLSCKASQNIYKYLNWFQQKLGEAPKLLIYYSNSLQTGIPSRFSGSGSGTDFTLTISSLQPEDVAIYFCFQYSSGPTFGPGTKLELKR | binds | binds | binds
2 | rat anti-ALK2 monoclonal antibody A2-25C (antibody, V domains shown, Rat monoclonal IgG from a hybridoma; also called 25C11) VH: EVQLVESGGGLVQPGGSLKLSCAASGFTFSYYAMSWVCQAPTKGLEWVASISRGGDNTYYRDTVKGRFTTSRDNAKNTLYLQMDSLRSEDTATYYCARLNYNNYFDYWGQGVMVTVSS VL: DIQMTQSPASLSASLEEIVTITCQASQDIGNWLSWYQQKPGKSPQLLIYGATSLADGVPSRFSGSRSGTQYSLKISRLRVEDIGIYYCLQAYSAPFTFGSGTKLEIKR | – | – | binds

The remaining lines, values ahead:

Row | binding result [1] | binding result [2] | binding result [3] | Binder
3 | binds | binds | binds | rat anti-ALK2 monoclonal antibody A2-15A (antibody, V domains shown, Rat monoclonal IgG from a hybridoma; also called 15A6) VH: EVQLVESGGGLVQPGRSLKLSCAASGFTFSHYYMAWVRQAPTKGLEWVASITNSGGSINYRDSVKGRFTISRDNAKSTLYLQMDSLRSEDTATYYCTREGGENYGGYPPFAYWGQGTLVTVSS VL: DIVLTQSPALAVSLGQRATISCRANQGVSLSRYNLMHWYQQKPGQKPKLLIYRSSNLASGIPARFSGSGSGTDFTLTINPVQADDIATYYCQQSRESPFTFGAGTKLELKR
4 | – | – | binds | rat anti-ALK2 monoclonal antibody A2-27D (antibody, V domains shown, Rat monoclonal IgG from a hybridoma; also called 27D11) VH: EVQLVESGGGLVQPGRSLKLSCLASGSTFSNYGMKWIRQAPGKGLEWVASISRSSTYIYYADTVKGRFTISRDNARNTLYLQMTSLRSEDTALYYCAAAISTPFYWYFDFWGPGTVVTVSS VL: EIVLTQSPTTMAASPGEKVTLNCLASSSVSYMTWYQQKSGASPKLWIYGTSNLASGVPNRFSGSGSGTSYSLAISSMEAEDVATYYCLHLTSYPPYTFGAGTKLELKR

Source: patent US20220041738A1 (SAITAMA MEDICAL UNIVERSITY, published 2022)
